From patent US20250043022A1 (JIANGSU HENGRUI PHARMACEUTICALS, published 2025) come the findings set out here.

Where a chain is given by its changes, count along the chain named.

B1: hu41H1L2 (antibody, human IgG1, kappa, V domains shown)
VH: EVQLVQSGAEVKKPGASVKVSCKASGYTFTSYGISWVRQAPGQGLEWMGEIFPRRGNTYYNEKFRGRVTMTTDKSTSTAYMELRSLRSDDTAVYYCARVFDGYYNYAMDYWGQGTTVTVSS
VL: DIQMTQSPSSLSASVGDRVTITCRASQDIGSSLNWLQQKPGKAIKRLIYATSSLDSGVPSRFSGSRSGTDYTLTISSLQPEDFATYYCLQYASSPYTFGGGTKVEIKR
B2: hu41H2L3 (antibody, human IgG1, kappa, V domains shown)
VH: B1 VH with M70L, T72A
VL: B1 VL with K42G, T69S
B3: hu41H2L1 (antibody, human IgG1, kappa, V domains shown)
VH: B1 VH with M70L, T72A
VL: B1 VL with I44P, Y71F
B4: hu41H1L1 (antibody, human IgG1, kappa, V domains shown)
VH: B1 VH
VL: B1 VL with I44P, Y71F
B5: hu41H1L3 (antibody, human IgG1, kappa, V domains shown)
VH: B1 VH
VL: B1 VL with K42G, T69S
B6: hu43H2L1 (antibody, human IgG1, kappa, V domains shown)
VH: EVQFVESGGGLVQPGGSLRLSCAASGFTFSNYWMNWVRQAPGKGLEWVAQVRLKSDNYATHYAESVKGRFTISREDAKNSAYLQMNSLRAEDTAVYYCSENYYGPAGPFDFWGQGTTVTVSS
VL: DIQMTQSPSSVSASVGDRVTITCKASQNVHTSVAWYQQKPGKSPKLLIYSASNRYSGVPSRFSGSGSGTDFTLTISSLQPEDFATYYCQQYSSYPLTFGQGTKLEIKR
B7: hu46H3L2 (antibody, human IgG1, kappa, V domains shown)
VH: EVQLVESGGGLVKPGGSLRLSCAASGFTFSNYGMSWVRQAPGKGIKWVSTIGSGGGYTYYSDSVKGRFTISRDNAKNSLYLQMNSLRAEDTAVYYCVRHPQIGYWGQGTLVTVSS
VL: DIQMTQSPSSLSASVGDRVTITCKASQSVGTAVAWYQQKPGKAPKLLIYSASSRYTGVPSRFSGSGSGTDFTLTISSLQPEDFADYFCHQYSSYPLTFGGGTKVEIKR
B8: hu46H2L3 (antibody, human IgG1, kappa, V domains shown)
VH: B7 VH with I45L, K46E
VL: B7 VL with S60D
B9: hu46H1L3 (antibody, human IgG1, kappa, V domains shown)
VH: B7 VH with I45L, K46E, V97A
VL: B7 VL with S60D
B10: hu46H1L2 (antibody, human IgG1, kappa, V domains shown)
VH: B7 VH with I45L, K46E, V97A
VL: B7 VL
B11: hu46H4L1 (antibody, human IgG1, kappa, V domains shown)
VH: B7 VH with S49A
VL: B7 VL with D85T, F87Y
B12: hu43H1L1 (antibody, human IgG1, kappa, V domains shown)
VH: B6 VH with E75D, D76N
VL: B6 VL
B13: hu46H2L1 (antibody, human IgG1, kappa, V domains shown)
VH: B7 VH with I45L, K46E
VL: B7 VL with D85T, F87Y
B14: hu43H3L1 (antibody, human IgG1, kappa, V domains shown)
VH: B6 VH with V37L
VL: B6 VL
B15: hu46H3L1 (antibody, human IgG1, kappa, V domains shown)
VH: B7 VH
VL: B7 VL with D85T, F87Y
B16: hu46H1L1 (antibody, human IgG1, kappa, V domains shown)
VH: B7 VH with I45L, K46E, V97A
VL: B7 VL with D85T, F87Y
B17: hu46H3L3 (antibody, human IgG1, kappa, V domains shown)
VH: B7 VH
VL: B7 VL with S60D
B18: hu46H4L2 (antibody, human IgG1, kappa, V domains shown)
VH: B7 VH with S49A
VL: B7 VL
B19: hu50H1L1 (antibody, human IgG1, kappa)
heavy: not shown
light: DIVMTQSPLSLPVTPGEPASISCRSSQSILHSNGNTYLEWYLQKPGQSPQLLIYRVSNRFSGVPDRFSGSGSGTDFTLKISRVEAEDVGVYYCFQGLHVPPTFGQGTKLEIKRTVAAPSVFIFPPSDEQLKSGTASVVCLLNNFYPREAKVQWKVDNALQSGNSQESVTEQDSKDSTYSLSSTLTLSKADYEKHKVYACEVTHQGLSSPVTKSFNRGEC
B20: hu50H1L3 (antibody, human IgG1, kappa, V domains shown)
VH: EVQLVQSGAEVKKPGASVKVSCKASGFTFTNYGISWVRQAPGQGLEWMGEIYPRSGNTYYNTNFKGRVTMTTDKSTSTAYMELRSLRSEDTAVYYCARNPFTTVVEGFAFWGQGTLVTVSS
VL: DIVMTQSPLSLPVTPGEPASISCRSSQSILHSYGNTYLEWYLQKPGQSPQLLIYRVSNRFSGVPDRFSGSGSGTDFTLKISRVEAEDVGVYYCFQGLHVPPTFGQGTKLEIKR
B21: hu50H2L3 (antibody, human IgG1, kappa, V domains shown)
VH: B20 VH with M70L, T72A
VL: B20 VL
B22: hu50H2L1 (antibody, human IgG1, kappa)
heavy: not shown
light: B19 light
B23: hu50H2L2 (antibody, human IgG1, kappa)
heavy: not shown
light: B19 light with I2V, V3F
B24: hu15H3L1 (antibody, human IgG1, kappa, V domains shown)
VH: EFQLVQSGAEVKKPGASVKVSCKASGYSFTDHNMNWVRQAPGQRLEWMGLINPNYGTADYNQKFKGRVTITVDQSASTAYMELSSLRSEDTAVYYCARGSSLFAYWGQGTLVTVSS
VL: DIQMTQSPSSLSASVGDRVTITCKASQGVDTAVAWYQQKPGKVPKLLIYWASTRHTGVPSRFSGSGSGTDFTLTISSLQPEDVATYYCQQYSRYPLTFGQGTKLEIKR
B25: hu15H2L2 (antibody, human IgG1, kappa, V domains shown)
VH: B24 VH with V72R, Q74T
VL: B24 VL with V43S, S60D
B26: hu15H3L2 (antibody, human IgG1, kappa, V domains shown)
VH: B24 VH
VL: B24 VL with V43S, S60D
B27: hu15H5L1 (antibody, human IgG1, kappa, V domains shown)
VH: B24 VH with M48I, V68A, I70L, S77T
VL: B24 VL
B28: hu15H4L1 (antibody, human IgG1, kappa, V domains shown)
VH: B24 VH with I70L, S77T
VL: B24 VL
B29: hu15H5L2 (antibody, human IgG1, kappa, V domains shown)
VH: B24 VH with M48I, V68A, I70L, S77T
VL: B24 VL with V43S, S60D
B30: hu15H1L2 (antibody, human IgG1, kappa, V domains shown)
VH: B24 VH with S28T, V72R, Q74T
VL: B24 VL with V43S, S60D
B31: hu15H1L1 (antibody, human IgG1, kappa, V domains shown)
VH: B24 VH with S28T, V72R, Q74T
VL: B24 VL
B32: hu15H2L1 (antibody, human IgG1, kappa, V domains shown)
VH: B24 VH with V72R, Q74T
VL: B24 VL
B33: hu31H1L2 (antibody, human IgG1, kappa, V domains shown)
VH: EVQLVESGGGLVQPGGSLRLSCAASGFTFSDYYMAWVRQAPGKGLEWVASINYDGSSTYYLDSLKSRFTISRDNAKNSLYLQMNSLRAEDTAVYYCAGSDGYWAWFAYWGQGTLVTVSS
VL: DIQMTQSPSSLSASVGDRVTITCRASGNIHNYLAWYQQKPGKAPQLLVYNAETLADGVPSRFSGSGSGTDFTLTISSLQPEDFATYYCQHFWSTPPTFGGGTKVEIKR
B34: hu31H1L3 (antibody, human IgG1, kappa, V domains shown)
VH: B33 VH
VL: B33 VL with A43S, D70Q

For the assay, the target named is T1, human PSMA on cells (Cho-hPSMA, CHO-K1 cells overexpressing full-length human PSMA) (human, UniProt Q04609 1-750).
T1 construct: whole, on cells; also called cell surface PSMA; PSMA-expressing Lncap cells
T1 sequence (Q04609 whole entry): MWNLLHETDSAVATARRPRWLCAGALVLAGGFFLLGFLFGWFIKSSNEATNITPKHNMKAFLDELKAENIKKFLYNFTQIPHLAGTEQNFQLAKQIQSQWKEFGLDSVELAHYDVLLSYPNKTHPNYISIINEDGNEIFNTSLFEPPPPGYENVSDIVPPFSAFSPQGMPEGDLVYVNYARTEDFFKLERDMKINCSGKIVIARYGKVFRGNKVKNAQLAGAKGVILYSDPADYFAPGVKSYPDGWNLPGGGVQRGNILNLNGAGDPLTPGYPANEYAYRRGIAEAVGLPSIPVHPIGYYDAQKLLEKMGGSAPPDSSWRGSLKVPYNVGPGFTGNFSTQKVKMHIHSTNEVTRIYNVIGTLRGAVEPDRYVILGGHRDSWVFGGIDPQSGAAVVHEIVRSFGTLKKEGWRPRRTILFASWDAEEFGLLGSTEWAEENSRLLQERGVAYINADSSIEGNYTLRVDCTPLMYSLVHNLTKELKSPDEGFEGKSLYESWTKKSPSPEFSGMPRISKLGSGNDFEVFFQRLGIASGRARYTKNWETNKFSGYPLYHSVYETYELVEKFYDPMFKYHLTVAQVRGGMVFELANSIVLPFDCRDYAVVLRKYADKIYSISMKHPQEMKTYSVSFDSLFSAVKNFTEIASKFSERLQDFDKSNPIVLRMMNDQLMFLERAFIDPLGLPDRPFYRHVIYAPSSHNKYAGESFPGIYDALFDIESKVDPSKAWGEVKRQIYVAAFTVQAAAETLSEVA
The experiment in a line: cell ELISA (OD450), Cho-hPSMA cells. The procedure:
Experiment 2: Cells were cultured and inoculated onto a cell plate using the same method as in Experiment 1. The antibodies were serially diluted, and the antibody solutions were added to the cell plate at 100 μL/well. The plate was incubated at 4° C. for 1 h and then washed. An HRP-Goat Anti-human IgG (H+L) secondary antibody dilution (1:8000) was added to the cell plate at 100 μL/well, and the plate was incubated at 4° C. for 1 h and then washed by centrifugation. After color development with TMB, the reaction was stopped with 0.1 M sulfuric acid, and OD450 values were measured.
On the technique in general: In an ELISA, binding on a coated surface is turned into a signal by an enzyme label.
What is called EC50 is the midpoint of the concentration-response curve. Higher therefore signals weaker potency. In turn, B1 showed an EC50 of 0.982 µg/mL.

As for B2, the EC50 worked out at 1.21 µg/mL.

In turn, B3 had an EC50 of 1.22 µg/mL.

The molecule B4 gave an EC50 of 1.08 µg/mL. This EC50 and that of the molecule before are within 1.5-fold of each other.

Consider B5, for which the EC50 came out at 0.985 µg/mL.

For B6, it took 6.17 µg/mL to reach a half-maximal effect (EC50). Against the preceding molecule, the EC50 is about 6.3-fold higher.

In the case of B7, the concentration for a half-maximal effect (EC50) is 0.0617 µg/mL.

B8 yielded a 50% effective concentration (EC50) of 0.0805 µg/mL.

In the case of B9, the 50% effective concentration (EC50) came to 0.123 µg/mL.

Turning to B10, the EC50 was 0.0813 µg/mL.

Molecule B11 came in with an EC50 of 0.0843 µg/mL. The EC50 values of the last two molecules are within 1.5-fold of each other.

B12 showed an EC50 of 6.22 µg/mL.

The molecule B13 had an EC50 of 0.0788 µg/mL.

The molecule B14 yielded an EC50 of 2.83 µg/mL.

B15: the EC50 was 0.0597 µg/mL.

B16 showed an EC50 of 0.136 µg/mL.

Molecule B17 gave an EC50 of 0.0912 µg/mL.

In turn, B18 gave a 50% effective concentration (EC50) of 0.079 µg/mL.

B19: the EC50 was 0.0679 µg/mL. The EC50 values of the last two molecules are within 1.5-fold of each other.

In turn, B20 gave an EC50 of 0.108 µg/mL.

Consider B21, for which the response was half-maximal at 0.104 µg/mL (EC50).

In turn, B22 gave an EC50 of 0.0487 µg/mL. Compared with the last molecule, the EC50 is about 2.1-fold lower.

Take B23: the EC50 amounted to 0.0477 µg/mL.

Consider B24, for which the response was half-maximal at 0.0731 µg/mL (EC50).

Turning to B25, the EC50 was 0.0874 µg/mL.

B26 registered an EC50 of 0.0821 µg/mL.

Take B27: the EC50 was determined as 0.0847 µg/mL.

In turn, B28 gave an EC50 of 0.069 µg/mL.

The molecule B29 showed a half-maximal effective concentration (EC50) of 0.0818 µg/mL.

Take B30: the EC50 amounted to 0.075 µg/mL.

Turning to B31, the EC50 amounted to 0.0683 µg/mL.

In turn, B32 returned an EC50 of 0.0871 µg/mL.

For the molecule B33, the EC50 was determined as 0.12 µg/mL.

For B34, the EC50 came out at 0.124 µg/mL.
